From paper doi:10.1101/2023.04.12.536585 (2023) come the findings set out here.

The target in assay [1] is p110γ-p101 complex (human p110γ, porcine p101) (human | porcine (Sus scrofa), UniProt P48736 1-1102; O02696 1-877). As to the kind of experiment: BLI.
Assay [2] deals with p110γ-p84 complex (human p110γ, mouse p84) (human | mouse, UniProt P48736 1-1102; Q3U6Q4 1-756). The assay can be described thus: BLI. On the technique in general: Biolayer interferometry detects binding as a change in optical thickness at a sensor tip.
Chain of p110γ-p84 complex (human p110γ, mouse p84) (P48736 whole entry, chain 1 of 2): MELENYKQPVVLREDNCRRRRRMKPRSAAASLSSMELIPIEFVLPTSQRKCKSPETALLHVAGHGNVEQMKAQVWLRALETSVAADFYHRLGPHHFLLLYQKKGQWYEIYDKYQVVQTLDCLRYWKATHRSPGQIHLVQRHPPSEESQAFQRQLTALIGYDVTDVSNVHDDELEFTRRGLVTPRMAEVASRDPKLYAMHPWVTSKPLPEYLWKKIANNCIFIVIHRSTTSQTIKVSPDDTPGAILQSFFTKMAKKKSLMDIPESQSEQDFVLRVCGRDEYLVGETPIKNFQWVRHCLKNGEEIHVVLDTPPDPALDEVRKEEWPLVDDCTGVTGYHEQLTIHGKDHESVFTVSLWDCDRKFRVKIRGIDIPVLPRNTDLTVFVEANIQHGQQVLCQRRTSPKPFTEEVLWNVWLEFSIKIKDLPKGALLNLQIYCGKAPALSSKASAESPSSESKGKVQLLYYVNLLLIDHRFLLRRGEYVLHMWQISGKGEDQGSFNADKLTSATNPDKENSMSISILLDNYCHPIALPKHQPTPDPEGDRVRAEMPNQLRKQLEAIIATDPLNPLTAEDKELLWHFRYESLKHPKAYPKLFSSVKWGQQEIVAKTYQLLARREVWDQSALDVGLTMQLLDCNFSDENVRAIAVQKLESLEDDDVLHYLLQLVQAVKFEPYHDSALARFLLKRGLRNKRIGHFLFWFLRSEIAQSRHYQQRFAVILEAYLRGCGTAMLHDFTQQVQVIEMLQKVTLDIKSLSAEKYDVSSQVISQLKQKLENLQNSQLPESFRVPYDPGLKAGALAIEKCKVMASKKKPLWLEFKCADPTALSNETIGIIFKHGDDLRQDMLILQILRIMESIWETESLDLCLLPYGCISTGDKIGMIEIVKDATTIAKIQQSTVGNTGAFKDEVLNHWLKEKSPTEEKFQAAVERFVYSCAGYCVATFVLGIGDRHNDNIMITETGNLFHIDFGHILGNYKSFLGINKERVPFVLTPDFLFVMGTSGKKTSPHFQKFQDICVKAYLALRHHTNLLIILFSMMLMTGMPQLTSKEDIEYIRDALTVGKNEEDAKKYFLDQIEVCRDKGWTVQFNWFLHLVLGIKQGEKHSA
Chain of p110γ-p84 complex (human p110γ, mouse p84) (Q3U6Q4 whole entry, chain 2 of 2): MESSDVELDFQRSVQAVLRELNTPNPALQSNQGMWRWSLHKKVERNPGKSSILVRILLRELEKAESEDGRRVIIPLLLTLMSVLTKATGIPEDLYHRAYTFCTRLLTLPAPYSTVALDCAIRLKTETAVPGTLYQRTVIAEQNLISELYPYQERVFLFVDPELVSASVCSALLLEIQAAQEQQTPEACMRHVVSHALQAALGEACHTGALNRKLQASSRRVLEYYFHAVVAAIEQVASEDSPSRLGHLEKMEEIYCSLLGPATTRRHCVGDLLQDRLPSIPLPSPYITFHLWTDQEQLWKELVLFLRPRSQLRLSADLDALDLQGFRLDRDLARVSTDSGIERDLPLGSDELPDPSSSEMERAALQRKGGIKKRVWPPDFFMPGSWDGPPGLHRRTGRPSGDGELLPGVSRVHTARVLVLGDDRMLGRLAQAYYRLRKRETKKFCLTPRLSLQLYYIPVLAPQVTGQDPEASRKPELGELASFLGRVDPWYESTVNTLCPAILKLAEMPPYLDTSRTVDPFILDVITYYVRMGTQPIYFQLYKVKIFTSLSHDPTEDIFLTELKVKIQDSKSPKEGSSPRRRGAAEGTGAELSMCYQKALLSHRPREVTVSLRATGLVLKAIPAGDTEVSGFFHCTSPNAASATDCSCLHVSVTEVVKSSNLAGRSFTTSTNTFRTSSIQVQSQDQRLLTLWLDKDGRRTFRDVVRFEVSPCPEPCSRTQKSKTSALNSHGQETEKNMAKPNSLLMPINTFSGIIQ

Chain of p110γ-p101 complex (human p110γ, porcine p101) (P48736 whole entry, chain 1 of 2): as the sequence (P48736 whole entry, chain 1 of 2) above
Chain of p110γ-p101 complex (human p110γ, porcine p101) (O02696 whole entry, chain 2 of 2): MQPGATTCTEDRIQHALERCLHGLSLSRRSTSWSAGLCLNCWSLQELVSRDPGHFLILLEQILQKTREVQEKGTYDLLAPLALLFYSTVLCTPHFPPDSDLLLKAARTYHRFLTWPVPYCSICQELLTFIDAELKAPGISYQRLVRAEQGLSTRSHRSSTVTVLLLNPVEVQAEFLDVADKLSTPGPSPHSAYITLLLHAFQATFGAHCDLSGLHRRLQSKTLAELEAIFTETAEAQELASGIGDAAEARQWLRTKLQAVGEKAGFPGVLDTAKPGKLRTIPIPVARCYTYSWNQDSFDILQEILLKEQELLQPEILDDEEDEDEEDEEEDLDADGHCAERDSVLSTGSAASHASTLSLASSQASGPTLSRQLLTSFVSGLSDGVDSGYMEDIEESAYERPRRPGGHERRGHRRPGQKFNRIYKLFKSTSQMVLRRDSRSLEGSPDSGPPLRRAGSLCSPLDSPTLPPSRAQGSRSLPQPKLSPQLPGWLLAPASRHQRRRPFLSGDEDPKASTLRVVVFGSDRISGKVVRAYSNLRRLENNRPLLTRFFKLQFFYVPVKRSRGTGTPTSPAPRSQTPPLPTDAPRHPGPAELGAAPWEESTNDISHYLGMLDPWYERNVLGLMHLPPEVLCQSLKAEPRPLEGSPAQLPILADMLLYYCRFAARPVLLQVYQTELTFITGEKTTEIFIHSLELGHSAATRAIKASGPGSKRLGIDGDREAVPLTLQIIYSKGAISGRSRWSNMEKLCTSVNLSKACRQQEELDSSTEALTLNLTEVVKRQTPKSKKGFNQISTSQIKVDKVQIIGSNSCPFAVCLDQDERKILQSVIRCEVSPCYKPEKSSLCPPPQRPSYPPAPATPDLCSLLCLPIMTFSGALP

B1: Nanobody NB7-PIK3CG (VHH)
VHH: QVQLVESGGGLVQPGGSLRLSCAASGSIFSINAMGWYRQAPGKQRELVAHITSGGSTNYADSVKGRFTISRDNAKNTVYLQMNSLKPEDTAVYYCNEAGDPFLGSTWNGPPAFGSWGQGTQVTVSS
By Kd is commonly meant the concentration at which binding is half-saturated. Read a low Kd as higher affinity. In the case of B1, the dissociation constant (Kd) in assay [1] came out at 3.1 nM; in assay [2], 3 nM.
